Holding throughout (test): HPLC-UV of product, Michaelis-Menten
What all share (assay type): biochemical, Cichorium intybus

Substrate in data set [1]: O=C(O)C1=C[C@@H](O)[C@@H](O)[C@H](O)C1
Conditions: acyl acceptor varied, saturating p-coumaroyl-CoA (800 μM), 50 mM phosphate pH 7.1, room temperature. The source says: HPLC-UV of product, Michaelis-Menten on HCT1 (CiHCT1)

Substrate in data set [2]: O=C(O)[C@]1(O)C[C@@H](O)[C@@H](O)[C@H](O)C1
Conditions: acyl acceptor varied, saturating caffeoyl-CoA (800 μM), 50 mM phosphate pH 7.1, room temperature. The source says: HPLC-UV of product, Michaelis-Menten on HQT2 (CiHQT2)

Substrate in data set [3]: O=C(O)[C@]1(O)C[C@@H](O)[C@@H](O)[C@H](O)C1
The conditions noted are these: acyl acceptor varied, saturating caffeoyl-CoA (800 μM), 50 mM phosphate pH 7.1, room temperature. The source says: HPLC-UV of product, Michaelis-Menten on HQT3 (CiHQT3)
The source holds these as a separate data set.

Substrate in data set [4]: O=C(O)[C@]1(O)C[C@@H](O)[C@@H](O)[C@H](O)C1
Conditions: acyl acceptor varied, saturating caffeoyl-CoA (800 μM), 50 mM phosphate pH 7.1, room temperature. An excerpt: HPLC-UV of product, Michaelis-Menten on HQT1 (CiHQT1)
The source holds these as a separate data set.

B1: HCT1 (CiHCT1) (Cichorium intybus) (protein)
chain: MKIEVRESTMVRPAEETPKINLWNSNVDLVVPNFHTPSVYFYRPNGATNFFDPKVMKDALSKALVPFYPMGGRLKRDEDGRIEIDCQGQGVLFVEAESDGMVDDFGDFAPTLELRKLIPAVDYSQGIESYPLLVLQVTYFKCGGVSLGVGMQHHAADGASGLHFINTWSDMARGLDLTIPPFIDRTLLRARDPPQPAFEHVEYQPAPQMKTTSKSTDEQPVPETAVAIFKLTRDQLNALKAKSKENGNTINYSSYEMLSGHVWRCVCKARNLPADQDTKLYIATDGRARLRPSLPPGYFGNVIFTTTPIAVAGELMSNPTWYAAGKIHDGLAKMDNDYLKSALDYLELQPDLKALVRGAHSFRCPNLGITSWARLPIHDADFGWGRPIFMGPGGIAYEGLSFVLPSPINDGSLSIAISLQAEHMKVFSKFLYDI
Consider B1, for which, in data set [1], the Michaelis constant (Km) (in general, the substrate concentration at which the rate is half of its maximum) turned out to be 320 ± 40 µM; the Vmax (as a rule, the top rate of the reaction or transport when substrate is in excess) worked out at 14.2 µmol/min/mg; the Vmax/Km came to 44400 µL/min/mg.

B2: HQT2 (CiHQT2) (Cichorium intybus) (protein)
chain: MGSDQKMMMNINIKKSSIIPPSETIPECPKQLWTSNLDLVVGRIHILTVYFYRPNGSANFFDPNVMKKALADVLVSFYPMAGRLDRDESGRIVINCNGEGVLFVEAESDSTLDDFGEFTPSPEFRRLTPTVDYSGDISSYPLFFAQVTHFKCGGVALGCGVFHTLSDGLSSLHFINTWSDMARGLSVAIPPFIERTLLRAREPPTPTHDHVEYHEPPSMSPTAQKPGSGSSTTMLKLTLDQLNTLKVKAKIESGQTHSTYEILAAHIWRCACKARGLPDDQLTKLYVATDGRSRLSPRLPPGYLGNVVFTATPVAKSGDLTSGSLSNTAKLIHTTLTKMDDDYLRSAIDYLESQKDLSALIRGPTYFASPNLNINAWTRLPVHDADFGYGRPIFMGPAQILYEGTVYVLPSPNNDRSVSLAVCLDANEQSLFEKFLYEL
As for B2, in data set [2], the Michaelis constant (Km) worked out at 613 ± 53 µM, the Vmax was found to be 8.04 µmol/min/mg and the Vmax/Km amounted to 13200 µL/min/mg.

B3: HQT3 (CiHQT3) (Cichorium intybus) (protein)
chain: MGSDHKTMKINIKQSSLVQPSKPTIPSNKKLWTSNLDLVVGRIHILTVYFYRPNGCSNFFDPVVMKKALADVLVSFYPFAGRLSRDQNGRLEINCNGEGVLFVEAESDSTLDDFGEFTPSPELRRLTPTVDYSGDISSYPLFFAQVTHFKCGGVGLGCGVFHTLADGLSSIHFINTWSDMTRGLSIAVPPFTDRTLLRARETPTPTFDHVEYHLPPTMNTTSQNPKSSRKPSTNMLKLTIDQLNALKTAAKNDGGNTAYSTYEILAAHLWRCACKARGLPNDQQTKLYVATDGRSRLSPQLPPGYLGNVVFTATPMAKSGDLTTQPLSNSASLIRSTLSKMDNEYLRSAIDYLEVQPDLSALIRGPSYFASPNLNINTWTRLPVHDADFGWGRPVFMGPAVILYEGTIYVLPSPNNDRSMSLAVCLDADEQPLFEKFLYEF
In the case of B3, in data set [3], the Michaelis constant (Km) is 318 ± 71 µM, the Vmax was determined as 9.9 µmol/min/mg and the Vmax/Km came to 31200 µL/min/mg.

B4: HQT1 (CiHQT1) (Cichorium intybus) (protein)
chain: MTNGAGSEKMKVTVKESVIVKPSKTTPIQRLWNSNIDLLVGRIHLLTIYFYRPNGSSDFFDSGVLKKALSDVLVSFFPMAGRLGKDGDGRVEINCNAEGVWFVEAEADCRIDDFGEITPSPELRRLAPTVDYSGDISSYPLFITQVTRFKCGGVSLGCGVHHTLSDGFSSLHFINTWSDVARGLSVAIPPFNDRTLLRARDPPTPMYDHVEYHPPPSLITPPENHKPPASTTILRLTLDQINDLKSKGKGDGSVYHSTFVIIAAHLWRSACKARGLSDDQPTKLYVATDGRSRLIPPLPSGYLGNVLFTTTPMAKSGEFKSESLADTARRIHNELARMDDQYMRSAIDYLELQSDLSALVRGPTYFASPNLNVNSWTRLPLYESDFGWGRPIFMGPASILYEGTIYIIPSPTDDRSLKLAVCLDSDHMSLFQKYLYDF
With B4, in data set [4], the Michaelis-Menten constant (Km) is 162 ± 34 µM, the Vmax came to 6.78 µmol/min/mg and the Vmax/Km came out at 42000 µL/min/mg.

Values taken from PMC4893494, “Identification and Characterization of Five BAHD Acyltransferases Involved in Hydroxycinnamoyl Ester Metabolism in Chicory” (Frontiers in Plant Science, 2016).
